How the values were obtained:
Experiment in all cases: cell-based or functional assay
[1] = target: HIV-1 Env of pseudovirus 1006_11_C3_1601 (HIV-1)
[2] = target: HIV-1 Env of pseudovirus 1054_07_TC4_1499 (HIV-1)
[3] = target: HIV-1 Env of pseudovirus 1394C9G1(Rev-) (HIV-1)
[4] = target: HIV-1 Env of pseudovirus 191084 B7-19 (HIV-1)
[5] = target: HIV-1 Env of pseudovirus 191955_A11 (HIV-1)
[6] = target: HIV-1 Env of pseudovirus 235-47 (HIV-1)
[7] = target: HIV-1 Env of pseudovirus 249M B10 (HIV-1)
[8] = target: HIV-1 Env of pseudovirus 62357_14_D3_4589 (HIV-1)
[9] = target: HIV-1 Env of pseudovirus 6244_13_B5_4576 (HIV-1)
[10] = target: HIV-1 Env of pseudovirus 6535.3 (HIV-1)
[11] = target: HIV-1 Env of pseudovirus 7030102001E5(Rev-) (HIV-1)
[12] = target: HIV-1 Env of pseudovirus BF1266.431a (HIV-1)
[13] = target: HIV-1 Env of pseudovirus BJOX009000.02.4 (HIV-1)
[14] = target: HIV-1 Env of pseudovirus C2101.c01 (HIV-1)
[15] = target: HIV-1 Env of pseudovirus C4118.c09 (HIV-1)
[16] = target: HIV-1 Env of pseudovirus CAP45.2.00.G3 (HIV-1)
[17] = target: HIV-1 Env of pseudovirus CNE17 (HIV-1)
[18] = target: HIV-1 Env of pseudovirus CNE30 (HIV-1)
[19] = target: HIV-1 Env of pseudovirus CNE58 (HIV-1)
[20] = target: HIV-1 Env of pseudovirus Ce1172_H1 (HIV-1)
[21] = target: HIV-1 Env of pseudovirus Ce2060_G9 (HIV-1)
[22] = target: HIV-1 Env of pseudovirus Ce704809221_1B3 (HIV-1)
[23] = target: HIV-1 Env of pseudovirus Du172.17 (HIV-1)
[24] = target: HIV-1 Env of pseudovirus HIV-16845-2.22 (HIV-1)
[25] = target: HIV-1 Env of pseudovirus Q259.d2.17 (HIV-1)
[26] = target: HIV-1 Env of pseudovirus QH0692.42 (HIV-1)
[27] = target: HIV-1 Env of pseudovirus R1166.c01 (HIV-1)
[28] = target: HIV-1 Env of pseudovirus R3265.c06 (HIV-1)
[29] = target: HIV-1 Env of pseudovirus RHPA4259.7 (HIV-1)
[30] = target: HIV-1 Env of pseudovirus T250-4 (HIV-1)
[31] = target: HIV-1 Env of pseudovirus TRO.11 (HIV-1)
[32] = target: HIV-1 Env of pseudovirus WEAU_d15_410_787 (HIV-1)
[33] = target: HIV-1 Env of pseudovirus WITO4160.33 (HIV-1)
[34] = target: HIV-1 Env of pseudovirus X2088_c9 (HIV-1)
[35] = target: HIV-1 Env of pseudovirus 0815.v3.c3 (HIV-1)
[36] = target: HIV-1 Env of pseudovirus 3016.v5.c45 (HIV-1)
[37] = target: HIV-1 Env of pseudovirus A07412M1.vrc12 (HIV-1)

N49P7 (antibody)
neutralization IC50 [1]: 0.044 µg/mL
neutralization IC80 [1]: 0.158 µg/mL
neutralization MPI [1]: 100
neutralization IC50 [2]: 0.494 µg/mL
neutralization IC80 [2]: 2.31 µg/mL
neutralization MPI [2]: 100
neutralization IC50 [3]: 3.84 µg/mL
neutralization IC80 [3]: 21.1 µg/mL
neutralization MPI [3]: 94
neutralization IC50 [4]: 0.047 µg/mL
neutralization IC80 [4]: 0.142 µg/mL
neutralization MPI [4]: 100
neutralization IC50 [5]: 1.81 µg/mL
neutralization IC80 [5]: 8.87 µg/mL
neutralization MPI [5]: 99
neutralization IC50 [6]: 0.045 µg/mL
neutralization IC80 [6]: 0.3 µg/mL
neutralization MPI [6]: 99
neutralization IC50 [7]: 0.081 µg/mL
neutralization IC80 [7]: 0.377 µg/mL
neutralization MPI [7]: 100
neutralization IC50 [8]: 0.025 µg/mL
neutralization IC80 [8]: 0.102 µg/mL
neutralization MPI [8]: 100
neutralization IC50 [9]: 0.111 µg/mL
neutralization IC80 [9]: 0.386 µg/mL
neutralization MPI [9]: 100
neutralization IC50 [10]: 0.186 µg/mL
neutralization IC80 [10]: 0.598 µg/mL
neutralization MPI [10]: 100
neutralization IC50 [11]: 0.184 µg/mL
neutralization IC80 [11]: 0.832 µg/mL
neutralization MPI [11]: 100
neutralization IC50 [12]: 0.057 µg/mL
neutralization IC80 [12]: 0.199 µg/mL
neutralization MPI [12]: 100
neutralization IC50 [13]: 0.113 µg/mL
neutralization IC80 [13]: 0.506 µg/mL
neutralization MPI [13]: 100
neutralization IC50 [14]: 0.06 µg/mL
neutralization IC80 [14]: 0.34 µg/mL
neutralization MPI [14]: 100
neutralization IC50 [15]: 0.043 µg/mL
neutralization IC80 [15]: 0.147 µg/mL
neutralization MPI [15]: 100
neutralization IC50 [16]: 0.06 µg/mL
neutralization IC80 [16]: 0.29 µg/mL
neutralization MPI [16]: 100
neutralization IC50 [17]: 0.126 µg/mL
neutralization IC80 [17]: 0.46 µg/mL
neutralization MPI [17]: 100
neutralization IC50 [18]: 0.18 µg/mL
neutralization IC80 [18]: 0.609 µg/mL
neutralization MPI [18]: 100
neutralization IC50 [19]: 0.029 µg/mL
neutralization IC80 [19]: 0.067 µg/mL
neutralization MPI [19]: 100
neutralization IC50 [20]: 8.5 µg/mL
neutralization IC80 [20]: 37.5 µg/mL
neutralization MPI [20]: 92
neutralization IC50 [21]: 0.661 µg/mL
neutralization IC80 [21]: 2.55 µg/mL
neutralization MPI [21]: 100
neutralization IC50 [22]: 0.141 µg/mL
neutralization IC80 [22]: 0.932 µg/mL
neutralization MPI [22]: 100
neutralization IC50 [23]: 0.102 µg/mL
neutralization IC80 [23]: 0.668 µg/mL
neutralization MPI [23]: 100
neutralization IC50 [24]: 0.95 µg/mL
neutralization IC80 [24]: 3.94 µg/mL
neutralization MPI [24]: 100
neutralization IC50 [25]: 0.332 µg/mL
neutralization IC80 [25]: 2.47 µg/mL
neutralization MPI [25]: 98
neutralization IC50 [26]: 0.663 µg/mL
neutralization IC80 [26]: 2.41 µg/mL
neutralization MPI [26]: 100
neutralization IC50 [27]: 0.092 µg/mL
neutralization IC80 [27]: 0.313 µg/mL
neutralization MPI [27]: 100
neutralization IC50 [28]: 0.048 µg/mL
neutralization IC80 [28]: 0.282 µg/mL
neutralization MPI [28]: 100
neutralization IC50 [29]: 0.083 µg/mL
neutralization IC80 [29]: 0.246 µg/mL
neutralization MPI [29]: 100
neutralization IC50 [30]: 2.07 µg/mL
neutralization IC80 [30]: 21.4 µg/mL
neutralization MPI [30]: 91
neutralization IC50 [31]: 0.044 µg/mL
neutralization IC80 [31]: 0.16 µg/mL
neutralization MPI [31]: 100
neutralization IC50 [32]: 0.045 µg/mL
neutralization IC80 [32]: 0.117 µg/mL
neutralization MPI [32]: 100
neutralization IC50 [33]: 0.084 µg/mL
neutralization IC80 [33]: 0.248 µg/mL
neutralization MPI [33]: 100
neutralization IC50 [34]: 0.116 µg/mL
neutralization IC80 [34]: 0.338 µg/mL
neutralization MPI [34]: 100

PGT151 (antibody)
IC50, titer in TZM.bl cells [35]: > 50 µg/mL
IC80, titer in TZM.bl cells [35]: > 50 µg/mL
IC50 [1]: 2.89 µg/mL
IC80 [1]: > 50 µg/mL
IC50 [2]: 0.008 µg/mL
IC80 [2]: 0.032 µg/mL
IC50 [3]: 0.022 µg/mL
IC80 [3]: 0.733 µg/mL
IC50 [4]: 0.004 µg/mL
IC80 [4]: 0.016 µg/mL
IC50 [5]: 0.004 µg/mL
IC80 [5]: 0.014 µg/mL
IC50, titer in TZM.bl cells [6]: 38.1 µg/mL
IC80, titer in TZM.bl cells [6]: > 50 µg/mL
IC50 [7]: 0.007 µg/mL
IC80 [7]: 0.023 µg/mL
IC50, titer in TZM.bl cells [36]: 0.174 µg/mL
IC80, titer in TZM.bl cells [36]: 40.7 µg/mL
IC50 [8]: 0.004 µg/mL
IC80 [8]: 0.023 µg/mL
IC50 [9]: > 50 µg/mL
IC80 [9]: > 50 µg/mL
IC50 [10]: < 0.001 µg/mL
IC80 [10]: 0.012 µg/mL
IC50 [11]: 0.001 µg/mL
IC80 [11]: 0.011 µg/mL
IC50, titer in TZM.bl cells [37]: 0.246 µg/mL
IC80, titer in TZM.bl cells [37]: > 50 µg/mL
IC50 [12]: > 50 µg/mL
IC80 [12]: > 50 µg/mL
IC50, titer in TZM.bl cells [13]: > 50 µg/mL
IC80, titer in TZM.bl cells [13]: > 50 µg/mL
IC50, titer in TZM.bl cells [15]: > 50 µg/mL
IC80, titer in TZM.bl cells [15]: > 50 µg/mL
IC50 [16]: 0.007 µg/mL
IC80 [16]: > 50 µg/mL
IC50 [17]: 0.093 µg/mL
IC80 [17]: > 50 µg/mL
IC50 [18]: > 50 µg/mL
IC80 [18]: > 50 µg/mL
IC50 [19]: 0.004 µg/mL
IC80 [19]: 0.016 µg/mL
IC50 [20]: > 50 µg/mL
IC80 [20]: > 50 µg/mL
IC50 [21]: 0.135 µg/mL
IC80 [21]: > 50 µg/mL
IC50 [22]: > 50 µg/mL
IC80 [22]: > 50 µg/mL
IC50 [23]: 0.003 µg/mL
IC80 [23]: 0.013 µg/mL
IC50 [24]: > 50 µg/mL
IC80 [24]: > 50 µg/mL
IC50 [25]: > 50 µg/mL
IC80 [25]: > 50 µg/mL
IC50 [26]: 0.029 µg/mL
IC80 [26]: 0.522 µg/mL
IC50, titer in TZM.bl cells [27]: > 50 µg/mL
IC80, titer in TZM.bl cells [27]: > 50 µg/mL
IC50, titer in TZM.bl cells [28]: > 50 µg/mL
IC80, titer in TZM.bl cells [28]: > 50 µg/mL
IC50 [29]: 0.006 µg/mL
IC80 [29]: 0.033 µg/mL
IC50 [30]: 0.005 µg/mL
IC80 [30]: 0.014 µg/mL
IC50 [31]: > 50 µg/mL
IC80 [31]: > 50 µg/mL
IC50 [32]: 0.01 µg/mL
IC80 [32]: > 50 µg/mL
IC50 [33]: 0.002 µg/mL
IC80 [33]: 0.021 µg/mL
IC50, titer in TZM.bl cells [34]: > 50 µg/mL
IC80, titer in TZM.bl cells [34]: > 50 µg/mL

— patent US20230002480A1
